Laboratory results: US20230015590A1 (JIANGSU ALPHAMAB BIOPHARMACEUTICALS, published 2023)

Molecular target: T1, human PD-L1 (WT) (human, UniProt Q9NZQ7 19-127, limits assumed)
T1 construct: also called human PD-L1 N-terminal IgV domain
Experiment: affinity measurement, method not stated

T1 sequence (Q9NZQ7 19-127 limits assumed): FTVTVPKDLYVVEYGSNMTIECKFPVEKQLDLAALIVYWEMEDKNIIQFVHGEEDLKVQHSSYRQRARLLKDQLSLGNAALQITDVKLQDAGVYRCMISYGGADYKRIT

B1: PD-L1 ISVD-9 (VHH)
VHH: QVQLVESGGGLVQPGGSLRLSCAASGKMSSRRCMAWFRQAPGKERERVAKLLTTSGSTYLADSVKGRFTISRDNSKNTVYLQMNSLRAEDTAVYYCAADSFEDPTCTLVTSSGAFQYWGQGTLVTVSS
notes: also called ISVD specific for PD-L1; aPDL1.9
Kd: 5.92 nM
